Like-named read-outs stand apart in the source and are kept apart here.

The source of these data is patent US8357833B2, “Corn plants and seed enhanced for asparagine and protein” (priority 2007, dated 2013).

In data set [1] the target is T1, Zea mays asparagine synthetase Zm AsnS4 (SEQ ID NO: 51, encoded by SEQ ID NO: 50) (Zea mays, UniProt B5U8J9).
T1 construct: 588 aa
T1 sequence (B5U8J9 1-588): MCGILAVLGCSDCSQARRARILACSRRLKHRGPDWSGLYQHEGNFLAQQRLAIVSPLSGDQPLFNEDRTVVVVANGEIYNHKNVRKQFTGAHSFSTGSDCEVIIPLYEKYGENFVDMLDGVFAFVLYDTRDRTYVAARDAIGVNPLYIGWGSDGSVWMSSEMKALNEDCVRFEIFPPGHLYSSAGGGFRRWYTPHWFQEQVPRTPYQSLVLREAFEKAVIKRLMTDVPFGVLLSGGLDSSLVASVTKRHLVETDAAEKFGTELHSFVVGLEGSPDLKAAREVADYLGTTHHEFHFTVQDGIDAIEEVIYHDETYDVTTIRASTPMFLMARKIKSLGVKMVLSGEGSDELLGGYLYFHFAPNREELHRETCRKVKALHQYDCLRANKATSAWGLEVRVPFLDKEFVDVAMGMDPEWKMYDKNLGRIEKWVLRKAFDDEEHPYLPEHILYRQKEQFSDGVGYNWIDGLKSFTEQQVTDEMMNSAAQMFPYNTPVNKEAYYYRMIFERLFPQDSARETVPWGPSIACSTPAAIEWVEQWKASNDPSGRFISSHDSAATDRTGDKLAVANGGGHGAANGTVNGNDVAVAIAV
Briefly: Kinetics of recombinant his-tagged, refolded maize asparagine synthetase AsnS4 (substrate titration, asparagine by HPLC). The format is biochemical. The procedure: The effect of expression of asparagine synthetase genes on asparagine synthetase activity was measured in transgenic events of pMON79706 and pMON92870. Frozen, ground leaf tissue was aliquoted (200-400 mg) into wells from a precooled 96 deep-well plate. Protein was extracted in Buffer A (100 mM Hepes-OH, pH 8.0, 0.1 mM EDTA, 10 mM MgCl2, 2 mM aspartate, 0.5 mM DTT, 67 mM mercaptoethanol, 20% (v/v) glycerol, 0.1 mM ATP, 1% (v/v) P9599 (Sigma Company), 25 mM KCl). A small amount of sand was added to each well. Buffer A was then added to the leaf tissue in the wells at a ratio of 4:1 (buffer:tissue). The plates were then agitated in a paint shaker for 2 min. to mix the sample and then centrifuged at 5000×g for 10 minutes. The supernatant (100-200 μL) was desalted in a 96-well macro spin plate (SNS S025L, The Nest Group Inc., Southboro, Mass.) equilibrated in buffer A. The supernatant was then either assayed immediately or frozen in liquid nitrogen and maintained at −80° C. until used. To assay asparagine synthetase activity, desalted protein extracts (10-50 μL) were added to wells containing 100 μL assay solution (100 mM Hepes, pH 8.0, 10 mM MgCl2, 2 mM aspartate, 5 mM DTT, 10 mM ATP, 1 mM amino(oxy)acetic acid (aspartate amino transferase inhibitor), 1 mM aspartic semialdehyde (asparaginase inhibitor). To start the reaction, glutamine (final concentration of 2 mM for standard assay) was added to the solution, which was then mixed. The assay mixture was then incubated for 1 to 2 hours. The reaction was then stopped by the addition of an equal volume of 20% (w/v) trichloroacetic acid. The mixture was then filtered to remove precipitate and asparagine was measured by HPLC. Sample size was increased from 0.5 μL to 2.5 μL for HPLC, excitation wavelength was reduced from 340 nm to 235 nm, and fluorimeter gain was increased from 10 to 13. […]

Data set [2] addresses T2, Zea mays asparagine synthetase Zm AsnS2 (SEQ ID NO: 4, encoded by SEQ ID NO: 3) (Zea mays, UniProt B5U8J7).
T2 construct: 606 aa
T2 sequence (B5U8J7 1-606): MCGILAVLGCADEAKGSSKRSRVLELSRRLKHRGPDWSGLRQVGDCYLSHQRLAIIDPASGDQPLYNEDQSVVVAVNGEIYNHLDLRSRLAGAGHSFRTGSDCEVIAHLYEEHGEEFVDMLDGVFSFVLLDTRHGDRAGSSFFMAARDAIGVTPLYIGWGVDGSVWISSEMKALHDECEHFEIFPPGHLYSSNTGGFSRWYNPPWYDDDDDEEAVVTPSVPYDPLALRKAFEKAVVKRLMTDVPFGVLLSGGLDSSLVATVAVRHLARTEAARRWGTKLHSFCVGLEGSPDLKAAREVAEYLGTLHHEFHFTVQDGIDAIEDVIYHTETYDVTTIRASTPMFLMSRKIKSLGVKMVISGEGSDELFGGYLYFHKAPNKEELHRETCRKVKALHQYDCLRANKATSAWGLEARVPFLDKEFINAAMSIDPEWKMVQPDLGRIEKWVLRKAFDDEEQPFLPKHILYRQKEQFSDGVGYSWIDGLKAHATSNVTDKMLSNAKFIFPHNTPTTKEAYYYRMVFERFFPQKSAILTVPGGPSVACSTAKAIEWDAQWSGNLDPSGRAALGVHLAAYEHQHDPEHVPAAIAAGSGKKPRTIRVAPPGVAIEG
The data set is described as follows: Kinetics of recombinant his-tagged, refolded maize asparagine synthetase AsnS2 (substrate titration, asparagine by HPLC). The format is biochemical. The note with it: AsnS2 versus the other maize AsnS enzymes. The procedure:
The effect of expression of asparagine synthetase genes on asparagine synthetase activity was measured in transgenic events of pMON79706 and pMON92870. Frozen, ground leaf tissue was aliquoted (200-400 mg) into wells from a precooled 96 deep-well plate. Protein was extracted in Buffer A (100 mM Hepes-OH, pH 8.0, 0.1 mM EDTA, 10 mM MgCl2, 2 mM aspartate, 0.5 mM DTT, 67 mM mercaptoethanol, 20% (v/v) glycerol, 0.1 mM ATP, 1% (v/v) P9599 (Sigma Company), 25 mM KCl). A small amount of sand was added to each well. Buffer A was then added to the leaf tissue in the wells at a ratio of 4:1 (buffer:tissue). The plates were then agitated in a paint shaker for 2 min. to mix the sample and then centrifuged at 5000×g for 10 minutes. The supernatant (100-200 μL) was desalted in a 96-well macro spin plate (SNS S025L, The Nest Group Inc., Southboro, Mass.) equilibrated in buffer A. The supernatant was then either assayed immediately or frozen in liquid nitrogen and maintained at −80° C. until used. […] The mixture was then filtered to remove precipitate and asparagine was measured by HPLC. […]

Substrate in data set [3]: NC(=O)CC[C@H](N)C(=O)O
The data set is described as follows: Kinetics of recombinant his-tagged, refolded maize asparagine synthetase AsnS3 (substrate titration, asparagine by HPLC). The format is biochemical, Zea mays. As to conditions: other: Zm AsnS3, 100 mM Hepes, pH 8.0, 10 mM MgCl2.

Substrate in data set [4]: N[C@@H](CC(=O)O)C(=O)O
The description is as above. As to conditions: other: Zm AsnS3, 100 mM Hepes, pH 8.0, 10 mM MgCl2. The format is biochemical, Zea mays.

Substrate in data set [5]: Nc1ncnc2c1ncn2[C@@H]1O[C@H](COP(=O)(O)OP(=O)(O)OP(=O)(O)O)[C@@H](O)[C@H]1O
The data set is described as above. The format is biochemical, Zea mays. As to conditions: other: Zm AsnS3, 100 mM Hepes, pH 8.0, 10 mM MgCl2.

Substrate in data set [6]: NC(=O)CC[C@H](N)C(=O)O
The data set is described as follows: Kinetics of recombinant his-tagged, refolded maize asparagine synthetase AsnS1 (substrate titration, asparagine by HPLC). The format is biochemical, Zea mays. The note with it: other: Zm AsnS1, 100 mM Hepes, pH 8.0, 10 mM MgCl2.

Substrate in data set [7]: N[C@@H](CC(=O)O)C(=O)O
The description is as above. The format is biochemical, Zea mays. The note with it: other: Zm AsnS1, 100 mM Hepes, pH 8.0, 10 mM MgCl2.

Substrate in data set [8]: Nc1ncnc2c1ncn2[C@@H]1O[C@H](COP(=O)(O)OP(=O)(O)OP(=O)(O)O)[C@@H](O)[C@H]1O
Described as above. The format is biochemical, Zea mays. As to conditions: other: Zm AsnS1, 100 mM Hepes, pH 8.0, 10 mM MgCl2.

Substrate in data set [9]: NC(=O)CC[C@H](N)C(=O)O
Briefly: Kinetics of recombinant his-tagged, refolded maize asparagine synthetase AsnS2 (substrate titration, asparagine by HPLC). The note with it: other: Zm AsnS2, 100 mM Hepes, pH 8.0, 10 mM MgCl2. The format is biochemical, Zea mays.

Substrate in data set [10]: N[C@@H](CC(=O)O)C(=O)O
The description is as above. The note with it: other: Zm AsnS2, 100 mM Hepes, pH 8.0, 10 mM MgCl2. The format is biochemical, Zea mays.

Substrate in data set [11]: Nc1ncnc2c1ncn2[C@@H]1O[C@H](COP(=O)(O)OP(=O)(O)OP(=O)(O)O)[C@@H](O)[C@H]1O
The description is as above. As to conditions: other: Zm AsnS2, 100 mM Hepes, pH 8.0, 10 mM MgCl2. The format is biochemical, Zea mays.

As to `Nc1ncnc2c1ncn2[C@@H]1O[C@H](COP(=O)(O)OP(=O)(O)OP(=O)(O)O)[C@@H](O)[C@H]1O` [ATP], in data set [1] (read-out: Km(ATP), 100 mM Hepes, pH 8.0, 10 mM MgCl2), the Km worked out at 128 µM.
In the case of `NC(=O)CC[C@H](N)C(=O)O` [Gln, glutamine], the “Km (Gln) for AsnS2 compared with the other enzymes” value in data set [2] is listed as “several fold lower than the other enzymes”. In data set [1] (100 mM Hepes, pH 8.0, 10 mM MgCl2, read-out: Km(Gln)), the Km stood at 233 µM.

B1: Zea mays asparagine synthetase Zm AsnS3 (SEQ ID NO: 6, encoded by SEQ ID NO: 5) (Zea mays) (protein)
chain: MCGILAVLGCSDWSQAKRARILACSRRLKHRGPDWSGLYQHEGNFLAQQRLAVVSPLSGDQPLFNEDRTVVVVANGEIYNHKNVRKQFTGTHNFSTGSDCEVIMPLYEKYGENFVDMLDGVFAFVLYDTRDRTYVAARDAIGVNPLYIGWGSDGSVWIASEMKALNEDCVRFEIFPPGHLYSSAGGGFRRWYTPHWFQEQVPRTPYQPLVLREAFEKAVIKRLMTDVPFGVLLSGGLDSSLVASVTKRHLVETEAAEKFGTELHSFVVGLEGSPDLKAAREVADYLGTIHHEFHFTVQDGIDAIEEVIYHDETYDVTTIRASTPMFLMARKIKSLGVKMVLSGEGSDELLGGYLYFHFAPNKEEFHRETCRKVKALHQYDCLRANKATSAWGLEVRVPFLDKEFINVAMGMDPEWKMYDKNLGRIEKWVMRKAFDDDEHPYLPKHILYRQKEQFSDGVGYNWIDGLKSFTEQQVTDEMMNNAAQMFPYNTPVNKEAYYYRMIFERLFPQDSARETVPWGPSIACSTPAAIEWVEQWKASNDPSGRFISSHDSAATDHTGGKPAVANGGGHGAANGTVNGKDVAVAIAV
notes: 588 aa
For the molecule B1, the Km in data set [3] stood at 423 µM; in [4], 1200 µM; in [5], 97 µM.

B2: Zea mays asparagine synthetase Zm AsnS1 (SEQ ID NO: 2, encoded by SEQ ID NO: 1) (Zea mays) (protein)
chain: MICDKCSLVRSFFVGRPRDITSLYKKAGSCRTMCGILAVLGVAEVSLAKRSRIIELSRRLRHRGPDWSGLHCHEDCYLAHQRLAIIDPTSGDQPLYNEDKTVVVTVNGEIYNHEELKAKLKTHEFQTGSDCEVIAHLYEEYGEEFVDMLDGMFSFVLLDTRDKSFIAARDAIGICPLYMGWGLDGSVWFSSEMKALSDDCERFITFPPGHLYSSKTGGLRRWYNPPWFSETVPSTPYNALFLREMFEKAVIKRLMTDVPFGVLLSGGLDSSLVASVASRHLNETKVDRQWGNKLHTFCIGLKGSPDLKAAREVADYLSTVHHEFHFTVQEGIDALEEVIYHIETYDVTTIRASTPMFLMSRKIKSLGVKMVISGEGSDEIFGGYLYFHKAPNKKEFHEETCRKIKALHLYDCLRANKATSAWGVEARVPFLDKSFISVAMDIDPEWKMIKRDLGRIEKWVIRNAFDDDERPYLPKHILYRQKEQFSDGVGYSWIDGLKDHASQHVSDSMMMNAGFVYPENTPTTKEGYYYRMIFEKFFPKPAARSTVPGGPSVACSTAKAVEWDASWSKNLDPSGRAALGVHDAAYEDTAGKTPASADPVSDKGLRPAIGESLGTPVASATAV
As to B2, the Km in data set [6] stood at 543 µM; in [7], 980 µM; in data set [8], 110 µM.

B3: Zea mays asparagine synthetase Zm AsnS2 (SEQ ID NO: 4, encoded by SEQ ID NO: 3) (Zea mays) (protein)
chain: MCGILAVLGCADEAKGSSKRSRVLELSRRLKHRGPDWSGLRQVGDCYLSHQRLAIIDPASGDQPLYNEDQSVVVAVNGEIYNHLDLRSRLAGAGHSFRTGSDCEVIAHLYEEHGEEFVDMLDGVFSFVLLDTRHGDRAGSSFFMAARDAIGVTPLYIGWGVDGSVWISSEMKALHDECEHFEIFPPGHLYSSNTGGFSRWYNPPWYDDDDDEEAVVTPSVPYDPLALRKAFEKAVVKRLMTDVPFGVLLSGGLDSSLVATVAVRHLARTEAARRWGTKLHSFCVGLEGSPDLKAAREVAEYLGTLHHEFHFTVQDGIDAIEDVIYHTETYDVTTIRASTPMFLMSRKIKSLGVKMVISGEGSDELFGGYLYFHKAPNKEELHRETCRKVKALHQYDCLRANKATSAWGLEARVPFLDKEFINAAMSIDPEWKMVQPDLGRIEKWVLRKAFDDEEQPFLPKHILYRQKEQFSDGVGYSWIDGLKAHATSNVTDKMLSNAKFIFPHNTPTTKEAYYYRMVFERFFPQKSAILTVPGGPSVACSTAKAIEWDAQWSGNLDPSGRAALGVHLAAYEHQHDPEHVPAAIAAGSGKKPRTIRVAPPGVAIEG
notes: 606 aa
Turning to B3, the Km is 110 µM in data set [9], 910 µM in data set [10] and 125 µM in [11].
